Earlier results in PMC6051640.

Target: retinol binding protein (Homo sapiens) (UniProt P02753)

Kd: 59 nM
Substance: Stra6 (from UniProt Q9BX79)
